{"source": "paper doi:10.1101/2020.06.17.158394", "about": "(bioRxiv, 2020)", "binders": {"B1": {"name": "full-length SasA (enzyme)", "chain": "MGESLSPQALAQPLLLQLFVDTRPLSQHIVQRVKNILAAVEATVPISLQVINVADQPQLVEYYRLVVTPALVKIGPGSRQVLSGIDLTDQLANQLPQWLVQQEAFFADREPPEVNIPFTELGQPETPALQQADAFFQLQQQYADLSERTKFLEQVIALVAHDLRNPLTAALLAVDTIQIRSQSFSVATAKEMQGLCSLFDQARSQLREIERMIAEILEATRHSGESLRINPREVVFEPLLQQVLEQLHERWRSKQQQLITDVPGDLPTLYADPDRLRQVLVNLLDNAIKYTPPGGTITIAALHRTSQKVQISISDTGSGIPRDQLSVIFKNLVRLSRDSSQEGYGIGLSVCQRIVQAHFGRIWVASELGQGSTFHFTMPVYRYTMPC"}}, "key": {"KaiC-EE (S. elongatus)": {"target": "KaiC-EE (S. elongatus) (UniProt Q79PF4)", "assay": "fluorescence polarisation"}, "KaiC": {"target": "T1, KaiC (S. elongatus, UniProt Q79PF4 1-519)", "T1 sequence": "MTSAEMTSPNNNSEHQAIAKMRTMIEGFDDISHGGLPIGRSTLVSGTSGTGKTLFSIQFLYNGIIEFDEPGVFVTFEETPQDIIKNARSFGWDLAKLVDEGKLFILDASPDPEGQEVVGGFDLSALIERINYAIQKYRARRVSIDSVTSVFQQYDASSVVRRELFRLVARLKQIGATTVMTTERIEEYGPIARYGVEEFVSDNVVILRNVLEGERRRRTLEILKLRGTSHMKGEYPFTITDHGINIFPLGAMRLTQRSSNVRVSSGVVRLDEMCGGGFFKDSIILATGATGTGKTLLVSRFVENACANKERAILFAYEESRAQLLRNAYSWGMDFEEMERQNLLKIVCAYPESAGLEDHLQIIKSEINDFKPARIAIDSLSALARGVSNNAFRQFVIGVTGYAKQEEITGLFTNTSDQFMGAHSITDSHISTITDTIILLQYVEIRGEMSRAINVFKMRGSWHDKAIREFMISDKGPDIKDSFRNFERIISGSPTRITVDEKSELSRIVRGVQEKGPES", "assay": "fluorescence polarisation"}}, "data": [{"binder": "B1", "values": [{"measurement": "fold increase in affinity against SasAtrx", "setting": "KaiC-EE (S. elongatus)", "value": "> 100", "unit": "fold"}, {"measurement": "binding result", "setting": "KaiC", "value": "binds"}]}]}
